Source: patent US20060134087A1, “ITI-D1 Kunitz domain mutants as hNE inhibitors” (Dyax Corp., published 2006)

Experiments:
[1] = target: T1, Human Neutrophil Elastase (human, UniProt P08246); assay: hNE inhibition assay of EPI-HNE-3 stored in unbuffered water at 4° C. for five months
[2] = target: T1, Human Neutrophil Elastase; assay: inhibition of hNE hydrolysis of a fluorogenic substrate, [hNE] = 8.47 × 10^-10 molar
Procedure: (§1) Inhibition constants for the proteins reacting with hNE (Kᵢ) were determined using RT measurements of hydrolysis of a fluorogenic substrate (N-methoxysuccinyl-Ala-Ala-Pro-Val-7-amino-4-methylcoumarin, Sigma M-9771) by hNE. […] The reactions were incubated at RT for 30 minutes. At the end of the incubation period, the fluorogenic substrate was added at a concentration of 25 μM and the time course for increase in fluorescence at 470 nm (excitation at 380 nm) due to enzymatic substrate cleavage was recorded using a spectrofluorimeter (Perkin-Elmer 650-15) and strip chart recorder. […] Kᵢ is related to Kₐₚₚₐᵣₑₙₜ by Kᵢ=Kₐₚₚₐᵣₑₙₜ×(1/(1+(S₀/Kₘ))). The correction is small compared to the possible errors in Kₐₚₚₐᵣₑₙₜ. Rates of enzymatic substrate cleavage were determined from the linear slopes of the recorded increases in fluorescence.
(§2) We recorded data used to determine Kᵢ for EPI-HNE-2 and EPI-HNE-3 reacting with hNE. Data obtained as described above are recorded as percent residual activity plotted as a function of added inhibitor. […] From the data, Kᵢ values for EPI-HNE-2 and for EPI-HNE-3 reacting with hNE at RT were calculated to be 4.8 pM and 6.2 pM, respectively.

Human Serum Kallikrein = Human Serum Kallikrein (human, UniProt P03952); assay: enzyme inhibition assay; limit on the assumption of less than 10% inhibition at the highest concentration tested
Human Urine Urokinase = Human Urine Urokinase (human, UniProt P00749); assay: as above
Human Serum Thrombin = Human Serum Thrombin (human, UniProt P00734); assay: as above
Human Serum Plasmin = Human Serum Plasmin (human, UniProt P00747); assay: as above
Human Plasma Factor Xa = Human Plasma Factor Xa (human, UniProt P00742); assay: as above
[3] = target: Human Pancreatic Chymotrypsin (human, UniProt P17538); assay: enzyme inhibition assay; said to be probably not specific
[4] = target: T1, Human Neutrophil Elastase; assay: progressive inhibition of hNE substrate hydrolysis after addition of inhibitor
Procedure: The kinetic on-rates for the inhibitors reacting with hNE (kₒₙ) were determined from measurements of progressive inhibition of substrate hydrolytic activity by hNE following addition of inhibitor. For these experiments, a known concentration of inhibitor was added to a solution of hNE (0.847 nM) and substrate (25 μM) in 2 ml of reaction buffer in a plastic fluorescence cuvette. The change in fluorescence was recorded continuously following addition of the inhibitor. […] The enzymatic rate at selected times following addition of the inhibitor was determined from the slope of the tangent to the fluorescence time course at that time.
The kinetic constant kₒₙ for EPI-HNE-2 reacting with hNE was determined as follows. EPI-HNE-2 at 1.3 nM was added to buffer containing 0.867 nM hNE (I:E=1.5:1) at time 0.

[5] = target: T1, Human Neutrophil Elastase; assay: enzyme inhibition assay
Procedure: as §1, §2

[6] = target: T1, Human Neutrophil Elastase; assay: calculated by the filing from koff = KD × kon
Excerpt: […] […] B. Specificity.

[7] = target: T1, Human Neutrophil Elastase; assay: display phage on hNE beads, pH elution
Procedure: (§3) To test if ITI-D1E7-display phage bind hNE beads, pH elution profiles were measured. Aliquots of EpiNE-7, MA-ITI-D1, and MA-ITI-D1E7 display phage were incubated with hNE beads for three hours at room temperature (RT). The beads were washed and phage were eluted as described in U.S. Pat. No. 5,223,409, except that only three pH elutions were performed.

[8] = target: T1, Human Neutrophil Elastase; assay: display phage eluted from hNE beads, normalized to MA-EpiNE7 in a concurrent elution
[9] = target: T1, Human Neutrophil Elastase; assay: abbreviated fractionation of display phage on hNE beads
Procedure: as §3

Binder | Ki [1] [nM] | Kd [2] [pM] | Ki (Human Serum Kallikrein) [µM] | Ki (Human Urine Urokinase) [µM] | Ki (Human Serum Thrombin) [µM] | Ki (Human Serum Plasmin) [µM] | Ki (Human Plasma Factor Xa) [µM] | Ki [3] [µM] | kon [4] [M⁻¹ s⁻¹] | Ki [5] [pM] | koff [6] [s⁻¹] | fold less total fraction eluted than EpiNE-7 display phage [7] [fold] | Normalized fraction of input (relative to recovered MA-EpiNE7) [8] [ratio] | fraction of input eluted at pH 3.5 [9] | fraction of input in Wash [9]
EPI-HNE-3 (designed binder) AACNLPIVRGPCIAFFPRWAFDAVKGKCVLFPYGGCQGNGNKFYSEKECREYCGVP | ~0.012 | 6.2 | > 100 | > 100 | > 100 | > 100 | > 100 | ~30 | 8e+06 | 6 | 5e-05 |  |  |  | 
MA-ITI-D1E7 display phage (designed binder) KEDSCQLGYSAGPCVAMFPRYFYNGTSMACETFQYGGCMGNGNNFVTEKDCLQTCRGA |  |  |  |  |  |  |  |  |  |  |  | ~40 | 0.027 | 8e-05 fraction of input | 2e-05 fraction of input
